Patent publication US20220033501A1 (SHANGHAI PHARMAEXPLORER, published 2022)

T1: human TIM-3 protein on human PBMC (human, UniProt Q8TDQ0 22-301)
T1 sequence: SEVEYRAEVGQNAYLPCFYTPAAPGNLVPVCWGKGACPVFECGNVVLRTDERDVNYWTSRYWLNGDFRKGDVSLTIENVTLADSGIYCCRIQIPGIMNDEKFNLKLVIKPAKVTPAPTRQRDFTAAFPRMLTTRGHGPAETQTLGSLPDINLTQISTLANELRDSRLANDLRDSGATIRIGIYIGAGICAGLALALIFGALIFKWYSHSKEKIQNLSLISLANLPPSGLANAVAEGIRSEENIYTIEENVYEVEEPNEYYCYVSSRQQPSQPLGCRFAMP

T2: human TIM-3 ECD (antigen protein of the affinity test) (human, UniProt Q8TDQ0 22-200)
T2 sequence: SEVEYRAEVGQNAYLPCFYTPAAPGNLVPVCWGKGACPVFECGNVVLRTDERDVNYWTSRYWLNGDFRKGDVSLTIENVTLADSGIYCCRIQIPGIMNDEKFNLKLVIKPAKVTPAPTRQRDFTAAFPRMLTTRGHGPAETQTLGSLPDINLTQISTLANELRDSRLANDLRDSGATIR

T3: murine TIM-3 protein with hFc tag (mTIM-3-hFc protein) (mouse; human, UniProt Q8VIM0 29-191)
T3 construct: Made in HEK293 cells; also called mouse TIM-3 extracellular domain protein; not shown: human IgG Fc fragment (hFc) of the pCpC vector
T3 chain: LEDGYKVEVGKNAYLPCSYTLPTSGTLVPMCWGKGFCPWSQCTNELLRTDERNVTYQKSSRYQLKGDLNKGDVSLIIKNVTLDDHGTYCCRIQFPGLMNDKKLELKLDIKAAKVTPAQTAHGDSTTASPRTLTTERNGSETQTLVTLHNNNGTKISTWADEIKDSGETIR

B1: fully human TIM-3 antibody 7A4F10 (antibody, human IgG4, V domains shown)
VH: EVQLLESGGGLVQPGGSLRLSCAASGFTFRTHLISWVRQAPGKGLEWVAAITGSGGSTYYADSVKGRFIISRDNSKNTLFLQMNSLRAEDTAVYYCAKDGGSGSYDDFWGQGTLVTVSS
VL: ETVLTQSPVTLSLSPGERATLSCRASQSVGSYLAWYQQKPGQAPRLLIYDASNRATGIPARFSGSGSGTDFTLTISSLEPEDFAVYYCQQRSNWPPTFGQGTKVEIK
notes: also called antibody number 1
B2: fully human TIM-3 antibody 18D2H2 (antibody, human IgG4, V domains shown)
VH: EVQLVESGGDLVQPGGSLRLSCAASGFTFSTYWMTWVRQAPGRGLEWVANIKQDGSAKYYVDSVKGRFTLSRDDAKNSLYLQMNSLRAEDTAVYYCARGSNWFDYWGQGTLVTVSS
VL: ETVMTQSPATLSVSPGERATLSCRANQNVYSNLAWYQQKPGQAPRLLIYDASTRATGFPARFSGSGSGTEFTLTISSLQSEDFAVYYCQQYNNWPLTFGGGTKVEIK
notes: also called antibody number 2
B3: fully human TIM-3 antibody 34B6D8 (antibody, human IgG4, V domains shown)
VH: EVQLVESGGGLVQPGGSLRLSCAASGFTFSTYWMTWVRQAPGKRLEWVANIKQGGGDKYYVDSVKGRFTISTDNAKNSLYLQMNSLRAEDTAVYYCARGSNWFDPWGQGTLVTVSS
VL: EIVMTQSPATLSMSPGERATLSCRASQSVYDNLAWYQQKPGQAPRLLIYGASTRATGIPARFSGSGSGTEFTLTISSLQSEDFALYYCQQYTHWPITFGQGTRLEIK
notes: also called antibody number 5
B4: fully human TIM-3 antibody 39E5H1 (antibody, human IgG4, V domains shown)
VH: EVQLVESGGGLVQPGGSLRLSCAASGFTFSSYWMSWVRQAPGKGLEWVANIKRGGSERYYVDSVKGRFTISGDNAKNSVYLQMNSLRAEDTAVYYCARGSNWFDPWGQGTLVTVSS
VL: ETVMTQSPAILSVSPGERATLSCRASQSVYSNLAWYQQKLGQAPRLLIYDASTRATGIPARFSGSGSGTEFTLTISSLQSEDFAVYYCQQYNNWPITFGQGTRLEIK
notes: also called antibody number 6
B5: fully human TIM-3 antibody 57F4E5 (antibody, human IgG4, V domains shown)
VH: EVQLVESGGGLVQPGGSLRLSCAASGFTFSSYWMSWVRQAPGKGLEWVANIKQDGSEKYYVDSVKGRFTISRDSAKNSLYLQMNSLRAEDTAMYFCARDSNFFDYWGQGTLVTVSS
VL: ETVMTQSPATLSVSPGERATLSCRASQSVSSNLAWYQRKPGQAPRLLIYFSSTRATGIPARFSGSGSGTEFTLTISSLQSEDFAVYYCQQYNNWPLTFGGGTKVEIK
notes: also called antibody number 7
B6: fully human TIM-3 antibody 134H3G6 (antibody, human IgG4, V domains shown)
VH: EVQLVESGGGLVQPGGSLRLSCAASGFTFSNSWMTWVRQAPGKGLEWVANIKQAGTEKYYVDSVKGRFTISRDNAKNSLYLQMNSLRAEDTAVYYCNSGSNYFDYWGQGTLVTVSS
VL: EIVMTQSPATLSVSPGERATLSCRARQNFYSNLAWYQQKPGQAPRLLIYGASTRATGIPARFSGSGSGTEFTLTISSLQSEDFAVYYCQQYNNWPLTFGGGTKVEIK
notes: also called antibody number 3
B7: fully human TIM-3 antibody 215A8F2 (antibody, human IgG4, V domains shown)
VH: QVQLQQWGAGLLKPSETLSLTCTVYGGSFSGYYWNWIRQPPGKGLEWLGEINHSGSTNYNPSLKRRVTISVDTSKNQFSLKLSSVTAADTAVYYCARVYYYGPFDFWGQGTLVTVSS
VL: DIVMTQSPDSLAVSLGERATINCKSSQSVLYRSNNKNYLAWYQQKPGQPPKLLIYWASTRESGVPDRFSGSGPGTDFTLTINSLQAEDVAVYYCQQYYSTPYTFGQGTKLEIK
notes: also called antibody number 4
B8: 34B6D8 fully human TIM-3 antibody (human IgG4, kappa) (antibody, V domains shown)
VH: EVQLVESGGGLVQPGGSLRLSCAASGFTFSTYWMTWVRQAPGKRLEWVANIKQGGGDKYYVDSVKGRFTISTDNAKNSLYLQMNSLRAEDTAVYYCARGSNWFDPWGQGTLVTVSS
VL: EIVMTQSPATLSMSPGERATLSCRASQSVYDNLAWYQQKPGQAPRLLIYGASTRATGIPARFSGSGSGTEFTLTISSLQSEDFALYYCQQYTHWPITFGQGTRLEIK

Assays:
[1] = target: T1, human TIM-3 protein on human PBMC; assay: cell-based or functional assay
[2] = target: T2, human TIM-3 ECD (antigen protein of the …); assay: AHC sensor kinetics, antibody captured on sensor, antigen protein in solution, global 1:1 fit
Experimental: First, AHC sensor was selected, and the sensor was balanced with buffer solution for 10 min, then the antibody to be tested was diluted to 5 μg/ml with buffer solution, and the antibody was solidified with the sensor for 3-5 min, with a signal value of 1-2 nm. The sensor was balanced again with buffer solution for 3 minutes, and then the antigen protein was diluted to 100 nM (the highest concentration was tentatively 100 nM) to bind and dissociate the antibody coupled by the sensor. If enough signal value was obtained, the antigen protein was diluted by several concentration gradients to analyze the binding and dissociation of antibody and antigen. At that end of each cycle, the sensor surface was regenerated with 10 mM, pH 1.5 Glycine. The kinetic rate constant needed to be subtracted the blank control, and the data was fitted with the global fit analysis method 1:1 combination model. The dissociation equilibrium rate constant (KD) was calculated according to the following formula: KD=kd/ka.

[3] = target: T3, murine TIM-3 protein with hFc tag …; assay: ELISA, coated mTIM-3-hFc

| Binder | IFN-γ production, lymphocyte activation assay (donor Y), antibody 0.1 µg/ml, N = 1 [1] [pg/mL] | IFN-γ production, lymphocyte activation assay (donor Y), antibody 0.1 µg/ml, N = 2 [1] [pg/mL] | IFN-γ production, lymphocyte activation assay (donor Y), antibody 1 µg/ml, N = 1 [1] [pg/mL] | IFN-γ production, lymphocyte activation assay (donor Y), antibody 1 µg/ml, N = 2 [1] [pg/mL] | IFN-γ production, lymphocyte activation assay (donor Y), antibody 10 µg/ml, N = 1 [1] [pg/mL] | IFN-γ production, lymphocyte activation assay (donor Y), antibody 10 µg/ml, N = 2 [1] [pg/mL] | IFN-γ production, lymphocyte activation assay (donor Y), antibody concentration head printed '0' (fifth), N = 1 [1] [pg/mL] | IFN-γ production, lymphocyte activation assay (donor Y), antibody concentration head printed '0' (fifth), N = 2 [1] [pg/mL] | IFN-γ production, lymphocyte activation assay (donor Y), antibody concentration head printed '0' (fourth), N = 1 [1] [pg/mL] | IFN-γ production, lymphocyte activation assay (donor Y), antibody concentration head printed '0' (fourth), N = 2 [1] [pg/mL] | Kd [2] [nM] | koff [2] [s⁻¹] | kon [2] [M⁻¹ s⁻¹] | binding result [3] |
| --- | --- | --- | --- | --- | --- | --- | --- | --- | --- | --- | --- | --- | --- | --- |
| B1 | 3150 | 3220 | 3330 | 3220 | 3340 | 3890 | 2180 | 2090 | 2250 | 2160 | 1.01 | 0.00113 | 1.11e+06 |  |
| B2 | 2540 | 2750 | 3110 | 2860 | 3050 | 3130 | 2130 | 2050 | 2200 | 2240 | 2.58 | 0.00313 | 1.22e+06 |  |
| B3 | 2890 | 2900 | 3050 | 3830 | 3520 | 3630 | 1820 | 2040 | 2130 | 2300 | 1.05 | 0.0012 | 1.15e+06 |  |
| B4 | 2710 | 2710 | 3400 | 3600 | 3500 | 4120 | 1840 | 2100 | 2090 | 1950 | 1.46 | 0.00155 | 1.06e+06 |  |
| B5 | 3210 | 2870 | 3550 | 3610 | 3960 | 3660 | 2150 | 2100 | 2310 | 2050 | 2.48 | 0.00397 | 1.6e+06 |  |
| B6 | 2220 | 2550 | 3200 | 3230 | 3400 | 3910 | 1810 | 2120 | 2030 | 2260 | 4.05 | 0.00483 | 1.19e+06 |  |
| B7 | 2600 | 2340 | 3320 | 2560 | 3140 | 2790 | 2380 | 2070 | 1990 | 2000 | 0.133 | 0.000128 | 965000 |  |
| B8 |  |  |  |  |  |  |  |  |  |  |  |  |  | no binding (tested: 66.667 nM) |
